Data taken from patent US20220204643A1 (published 2022).

Experiments:
[1] = target: T1, NCCRP1, F-box associated domain containing (human, UniProt Q6ZVX7 1-275); assay: protein array
T1 construct: on protein array
T1 sequence: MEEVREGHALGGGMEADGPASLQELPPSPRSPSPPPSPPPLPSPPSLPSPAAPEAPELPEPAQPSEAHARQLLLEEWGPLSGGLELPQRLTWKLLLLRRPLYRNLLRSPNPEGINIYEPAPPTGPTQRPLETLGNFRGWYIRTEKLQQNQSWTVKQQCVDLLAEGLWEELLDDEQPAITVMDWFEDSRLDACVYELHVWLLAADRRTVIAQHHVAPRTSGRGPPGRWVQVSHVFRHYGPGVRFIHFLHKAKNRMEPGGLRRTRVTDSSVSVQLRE

[2] = target: T2, coiled-coil domain containing 102A, transcript variant X1 (human, UniProt Q96A19 1-550); assay: protein array
T2 construct: on protein array; also called CCDC102A
T2 sequence (Q96A19 other isoform, or with tags, fused parts or gaps mutant limits assumed): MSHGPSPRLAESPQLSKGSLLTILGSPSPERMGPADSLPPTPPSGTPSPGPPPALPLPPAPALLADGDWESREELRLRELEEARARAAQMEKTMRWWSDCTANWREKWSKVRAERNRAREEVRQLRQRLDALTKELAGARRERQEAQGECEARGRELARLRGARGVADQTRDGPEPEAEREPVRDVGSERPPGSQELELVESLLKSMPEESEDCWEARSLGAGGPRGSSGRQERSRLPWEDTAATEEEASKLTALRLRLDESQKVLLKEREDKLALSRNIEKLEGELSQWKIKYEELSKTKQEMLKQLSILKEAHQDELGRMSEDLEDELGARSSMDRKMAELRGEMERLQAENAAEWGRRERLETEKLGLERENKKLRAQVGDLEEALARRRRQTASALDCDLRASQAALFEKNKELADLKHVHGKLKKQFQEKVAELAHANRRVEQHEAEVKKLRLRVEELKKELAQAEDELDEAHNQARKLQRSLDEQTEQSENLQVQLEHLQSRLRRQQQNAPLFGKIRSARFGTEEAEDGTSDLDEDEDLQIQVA

[3] = target: T3, RNA binding motif protein 47, transcript variant X10 (human, UniProt A0AV96 1-593); assay: protein array
T3 construct: on protein array; also called RBM47
T3 sequence: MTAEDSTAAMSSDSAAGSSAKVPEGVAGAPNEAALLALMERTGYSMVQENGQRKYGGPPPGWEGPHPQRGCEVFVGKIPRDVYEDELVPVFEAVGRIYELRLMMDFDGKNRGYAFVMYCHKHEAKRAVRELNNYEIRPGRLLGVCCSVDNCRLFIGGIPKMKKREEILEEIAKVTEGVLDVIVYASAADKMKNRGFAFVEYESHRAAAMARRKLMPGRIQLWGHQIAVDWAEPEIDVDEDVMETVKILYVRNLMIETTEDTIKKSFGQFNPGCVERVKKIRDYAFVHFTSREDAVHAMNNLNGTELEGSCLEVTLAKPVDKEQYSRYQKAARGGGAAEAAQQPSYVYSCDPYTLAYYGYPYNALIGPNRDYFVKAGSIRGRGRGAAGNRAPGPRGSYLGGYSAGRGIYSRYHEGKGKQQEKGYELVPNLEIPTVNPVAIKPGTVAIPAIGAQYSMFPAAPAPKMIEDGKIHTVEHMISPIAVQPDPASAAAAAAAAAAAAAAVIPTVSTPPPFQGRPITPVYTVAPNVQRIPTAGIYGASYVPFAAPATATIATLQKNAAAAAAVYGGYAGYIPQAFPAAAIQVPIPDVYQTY

[4] = target: T4, RAD1 checkpoint DNA exonuclease, transcript variant 1 (human, UniProt O60671 1-282); assay: protein array
T4 construct: on protein array
T4 sequence: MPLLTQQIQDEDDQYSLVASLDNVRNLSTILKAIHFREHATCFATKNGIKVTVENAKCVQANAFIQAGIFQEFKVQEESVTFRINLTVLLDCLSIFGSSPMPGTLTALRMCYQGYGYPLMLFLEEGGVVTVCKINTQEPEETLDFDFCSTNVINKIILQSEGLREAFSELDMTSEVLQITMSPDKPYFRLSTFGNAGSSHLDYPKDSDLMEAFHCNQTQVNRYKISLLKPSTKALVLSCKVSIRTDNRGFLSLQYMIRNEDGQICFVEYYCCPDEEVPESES

[5] = target: T5, Microtubule associated scaffold protein 1 (human, UniProt Q9ULD2 875-1270); assay: protein array
T5 construct: on protein array; also called MTUS1
T5 sequence: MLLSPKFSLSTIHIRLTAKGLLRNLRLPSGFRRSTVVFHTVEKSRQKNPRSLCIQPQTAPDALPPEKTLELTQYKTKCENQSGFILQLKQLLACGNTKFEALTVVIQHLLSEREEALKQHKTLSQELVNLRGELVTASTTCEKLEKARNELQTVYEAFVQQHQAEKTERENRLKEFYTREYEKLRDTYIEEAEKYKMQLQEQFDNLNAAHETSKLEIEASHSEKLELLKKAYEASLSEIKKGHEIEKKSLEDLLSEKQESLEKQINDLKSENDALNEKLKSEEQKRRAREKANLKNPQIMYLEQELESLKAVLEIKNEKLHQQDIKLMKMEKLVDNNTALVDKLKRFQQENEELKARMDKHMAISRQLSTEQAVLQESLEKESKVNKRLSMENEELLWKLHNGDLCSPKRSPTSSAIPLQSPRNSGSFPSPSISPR

[6] = target: T6, CDP-diacylglycerol synthase 1 (human, UniProt Q92903 1-461); assay: protein array
T6 construct: on protein array; also called CDS1
T6 sequence: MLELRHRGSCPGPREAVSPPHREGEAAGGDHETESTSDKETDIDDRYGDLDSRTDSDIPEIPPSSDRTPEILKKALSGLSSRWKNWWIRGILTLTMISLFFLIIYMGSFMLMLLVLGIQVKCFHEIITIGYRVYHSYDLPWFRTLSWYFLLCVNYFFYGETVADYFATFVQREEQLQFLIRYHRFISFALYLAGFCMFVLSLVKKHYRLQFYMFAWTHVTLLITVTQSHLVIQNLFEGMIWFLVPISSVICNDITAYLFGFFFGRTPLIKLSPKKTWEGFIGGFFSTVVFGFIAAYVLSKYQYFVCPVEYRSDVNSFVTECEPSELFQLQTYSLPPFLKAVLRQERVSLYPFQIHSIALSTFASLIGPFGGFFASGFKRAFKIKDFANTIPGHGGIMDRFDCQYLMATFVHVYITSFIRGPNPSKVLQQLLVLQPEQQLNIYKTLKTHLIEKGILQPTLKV

[7] = target: T7, dynein axonemal assembly factor 3, transcript variant 3 (human, UniProt Q8N9W5 1-541); assay: protein array
T7 construct: on protein array; also called DNAAF3
T7 sequence: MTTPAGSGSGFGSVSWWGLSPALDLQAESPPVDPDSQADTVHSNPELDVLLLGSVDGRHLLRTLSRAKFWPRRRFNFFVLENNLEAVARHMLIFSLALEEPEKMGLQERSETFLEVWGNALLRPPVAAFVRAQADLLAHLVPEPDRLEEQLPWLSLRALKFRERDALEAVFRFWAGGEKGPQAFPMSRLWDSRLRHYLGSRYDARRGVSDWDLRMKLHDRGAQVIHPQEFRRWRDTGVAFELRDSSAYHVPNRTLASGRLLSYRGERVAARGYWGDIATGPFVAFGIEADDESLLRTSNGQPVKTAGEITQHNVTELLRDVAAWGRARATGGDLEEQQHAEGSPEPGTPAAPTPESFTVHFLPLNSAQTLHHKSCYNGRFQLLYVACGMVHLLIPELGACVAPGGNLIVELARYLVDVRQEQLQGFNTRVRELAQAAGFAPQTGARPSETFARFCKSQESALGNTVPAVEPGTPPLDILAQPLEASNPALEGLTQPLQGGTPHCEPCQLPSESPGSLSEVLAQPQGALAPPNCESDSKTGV

[8] = target: aldo-keto reductase family 1 member B, transcript variant 1 (human, UniProt P15121 2-316); assay: protein array
[9] = target: T8, S100 calcium binding protein B (human, UniProt P04271 2-92); assay: protein array, with experimental replicate
T8 construct: on protein array; also called S100B
T8 sequence: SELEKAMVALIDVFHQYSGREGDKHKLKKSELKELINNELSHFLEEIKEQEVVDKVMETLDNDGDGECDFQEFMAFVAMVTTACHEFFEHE

[10] = target: T9, checkpoint kinase 2, transcript variant 3 (human); assay: protein array
T9 construct: on protein array; also called CHEK2
T9 chain: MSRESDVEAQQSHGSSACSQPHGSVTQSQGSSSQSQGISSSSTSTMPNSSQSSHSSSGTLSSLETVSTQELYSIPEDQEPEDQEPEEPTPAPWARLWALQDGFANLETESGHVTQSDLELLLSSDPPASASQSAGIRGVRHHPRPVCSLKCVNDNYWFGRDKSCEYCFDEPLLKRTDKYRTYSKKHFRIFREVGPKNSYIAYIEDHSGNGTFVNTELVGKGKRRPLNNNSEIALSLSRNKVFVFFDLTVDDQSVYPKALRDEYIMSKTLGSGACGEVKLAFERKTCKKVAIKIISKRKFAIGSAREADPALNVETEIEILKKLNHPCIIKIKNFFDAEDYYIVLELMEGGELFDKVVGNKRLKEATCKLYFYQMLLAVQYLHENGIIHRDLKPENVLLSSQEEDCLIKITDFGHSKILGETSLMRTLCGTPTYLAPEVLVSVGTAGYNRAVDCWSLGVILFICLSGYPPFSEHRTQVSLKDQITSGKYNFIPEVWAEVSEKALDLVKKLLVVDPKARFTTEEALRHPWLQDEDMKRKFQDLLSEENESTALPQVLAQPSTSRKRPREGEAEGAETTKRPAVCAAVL

[11] = target: T10, ankyrin repeat domain 53, transcript variant 2 (human); assay: protein array, with experimental replicate
T10 construct: on protein array; also called ANKRD53
T10 chain: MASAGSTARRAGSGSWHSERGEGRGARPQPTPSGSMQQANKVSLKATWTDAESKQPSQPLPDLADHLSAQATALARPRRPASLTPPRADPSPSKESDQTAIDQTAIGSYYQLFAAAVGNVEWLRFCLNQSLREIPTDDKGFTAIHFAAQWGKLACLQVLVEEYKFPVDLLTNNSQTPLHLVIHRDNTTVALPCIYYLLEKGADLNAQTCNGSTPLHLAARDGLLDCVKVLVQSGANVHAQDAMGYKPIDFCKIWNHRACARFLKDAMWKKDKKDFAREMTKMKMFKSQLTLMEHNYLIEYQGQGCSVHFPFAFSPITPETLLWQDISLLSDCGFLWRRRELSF

B1: THNS1003 (antibody, V domains shown)
VH: VVQLVESGGGLVQPGGSLRLSCAASGFTFNNYEMNWVRQAPGKGLEWVSYISSSGSTIYYADSVKGRFTISRDNAKNSLYLQMNSLRAEDTAVYYCARQMVTTRGYWGQGTLVTVSS
VL: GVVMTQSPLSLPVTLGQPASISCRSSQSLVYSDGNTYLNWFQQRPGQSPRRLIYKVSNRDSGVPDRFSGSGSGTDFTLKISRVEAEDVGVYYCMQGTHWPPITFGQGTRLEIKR
notes: VH/VL only
- binding result [1]: binds
- binding result [2]: binds

B2: THNS1004 (antibody, V domains shown)
VH: EVQLVESGGGLVQPGGSLRLSCAASGFTFSSNWMSWVRQAPGKGLEWVANIKEDGSEKYYVDSVKGRFTIFRDNAKNSLYLQMNSLRAEDTAVYYCARVPSRYGRSRGAFDIWGQGTMVTVSS
VL: DIQMTQSPSSLSASVGDRVTITCRASQSISSYLNWYQQKPGKAPKLLIYAASSLQSGVPSRFSGSGSGTDFTLAISSLQPEDFATYYCHQTYSTRLTFGGGTEVEIKR
notes: VH/VL only
- binding result [3]: binds

B3: THNS1006 (antibody, V domains shown)
VH: QVQLVESGGGVVQPGRSLRLSCAASGFTFSSYGMHWVRQAPGKGLEWVAIISYDGSNKYYADSVKGRFTISRDKSKNTLYLQMNSLRAEDTAVYYCAKSKGNYRDAMDVWGQGTTVTVSS
VL: SYVLTQPPSVSVAPGQTARITCGGNNIGSKSVHWYQQKPGQAPVLVVYDDSDRPSGIPERFSGSNSGNTATLTISRVEAGDEADYYCQVWDSSSDPWVFGGGTKLTVLG
notes: VH/VL only
- binding result [4]: binds
- binding result [5]: binds

B4: THNS1014 (antibody, V domains shown)
VH: HVQLLQSGPGLVKPSQTLSLTCAISGDSVSSTSGAWNWIRQSPSRGLEWLGRTYYRSQWMNDYAESVRSRITINPDTSKNQFSLQLKSVTPEDTAVYYCTRGWAFTSSDWGQGTQVTVSS
VL: EIVLTQSPGTLSLSPGERATLSCRASQSFDGKSLAWYQQKPGQTPRLLVYGASSRATGIPDRFGGSGSGTDFTLTISRLESEDFAVYFCQQYAYVPITFGQGTRLERKR
notes: VH/VL only
- binding result [6]: binds
- binding result [7]: binds

B5: TKIC1006 (antibody, V domains shown)
VH: QVQLVQSGAEVKKPGSSVKVSCKTSGGTFSSYTISWVRQAPGQGPEWMGRIIPILNITNYAQKFQGRVTITADKSTSTTYMEMGSLRSEDTAVYFCARSFYGSGLQWGQGTLVTVSS
VL: EIVLTQSPGTLSLSPGERATLSCRASQSVSSSYLVWYQQKAGQAPRLLIYGASSRATGISDRFSGSGSGTDFTLTISRLEPEDFAVYYCQHFRSSPPTYTFGQGTKLEIKR
notes: VH/VL tied via antigen in summary, not by name in this stretch
- binding result [8]: binds

B6: TKIC10012 (antibody, V domains shown)
VH: VVQLVESGGGLVQPGGSLRLSCAASGFSFSTYWMSWVRQAPGKGLEWVANIKQDGSEKHYVDSVKGRFTISRDNAKNSLYLQMNSLRAEDTAMYYCARRAYSFDYWGQGTLVTVSS
VL: DIQMTQSPSTLSASVGDKVTITCRASQSVGSWLAWYQQKPGKAPKLLISVASSLESGVPSRFSGSGSGTEFTLTVSSLQPDDFATYYCQQYNSYSWTFGQGTKVELKR
notes: as for B5
- binding result [9]: binds

B7: TKIC10013 (antibody, V domains shown)
VH: EVQLVESGGGLVQPGGSLRLSCAASGFTFNNYWMHWVRQAPGKGLVWVSRISSDGSTTASADSVKGRFTISRDNAKNTLFLQMNSLRAEDTAVYYCAREGAPDDYGDSGTAFDIWGQGTTVTVSS
VL: DIQLTQSPSFLSASVGDRVTITCRASQDISSFLAWYQQKPGKAPDLLIYAASTLQSGVPSRFSGSGSGTEFTLTISSLQPEDFAAYYCQHLTSFPYTFGQGTKLEIKR
notes: as for B5
- binding result [10]: binds

B8: TKIC10019 (antibody, V domains shown)
VH: QLQLQESGPGLVKPSETLSLTCTVSDVSIISSFYYWGWIRQPPGKGLEWIGSVYYSGSTSYNPSLKSRVTISADTSKAHFSLNLRSVTAADTAVYYCVSRGPLGGAAAGPDYWGQGALVIVSS
VL: VSSELTQDPAVSVALGQTVRITCQGDSLRSYYATWYQQKPGQAPLLVIFDKDKRPSGIPDRFSGSSSGNTASLTITGAQPEDEAVYYCNSRDSSAHDHLLFGGGTTLTVLG
notes: as for B5
- binding result [11]: binds
